According to patent US20240254220A1 (CENTRICSBIO, published 2024):
Changes are numbered by the printed parent chain.

B1: CK1 (antibody, V domains shown)
VH: EVQLLESGGGLVQPGGSLRLSCAASGFTFSRYAMTWVRQAPGKGLEWVSSMSGTGGTTYYADSVKGRFTISRDNSKNTLYLQMNSLRAEDTAVYYCARGAYGFDHWGQGTLVTVSS
VL: EIVLTQSPGTLSLSPGERATLSCRASQSIGNYLNWYQQKPGQAPRLLIYDASNLETGIPDRFSGSGSGTDFTLTISRLEPEDFAVYYCQQSSAIPYTFGQGTKVEIK
notes: also called anti-CD300c monoclonal antibody CK1; CB301 antibody CK1
B2: SK16 (antibody, V domains shown)
VH: RVQLLESGGGLVQPGGSLRLSCAASGFTFSSYAMSWVRQAPGKGLEWVSAINGSGGSTLYADSVKGRFTISRDNSKNTLYLQMNSLRAEDTAVYYCARGVSGFDSWGQGTLVTVSS
VL: B1 VL with A25I, G30S, N31S, N53L, L54R, E55A, S92Y, A93K, I94T, Y96I
notes: also called anti-CD300c monoclonal antibody SK16; CB301 antibody SK16
B3: SK15 (antibody, V domains shown)
VH: B2 VH with S35H, L59Y, M83T, V100L, S101Q, S105Y
VL: B1 VL with R24Q, S28D, G30T, N53S, S92Y, A93S, I94T, Y96I
notes: also called anti-CD300c monoclonal antibody SK15; CB301 antibody SK15
B4: CL5 (antibody, V domains shown)
VH: RVQLLESGGGLVQPGGSLRLSCAASGFTFSSYAMHWVRQAPGKGLEWVSSISGGGYGTYYADSVKGRFTISRDNSKNTLYLQMNSLRAEDTAVYYCARSTVWAFDIWGQGTLVTVSS
VL: QSVLTQPPSASGTPGQRVTISCSGNNIGSKSVHWYQQLPGTAPKLLIYDVSKRPSERPDRFSGSKSGTSASLAISDLRSEDEADYYCQSFDSSGTWIFGGGTKLTVL
notes: also called anti-CD300c monoclonal antibody CL5; CB301 antibody CL5
B5: CB301_H3L1_F4 (antibody, V domains shown)
VH: EVQLLESGGGLVQPGGSLRLSCAASGFTFSGYAMSWVRQAPGKGLEWVSAISGSGGSTYYADSVKGRFTISRDNSKNTLYLQMNSLRAEDTAVYYCARSPSGLFDYWGQGTLVTVSS
VL: QSVLTQPPSASGTPGQRVTISCGGNNIGSKRVHWYQQLPGTAPKLLIYNTSNKHSGVPDRFSGSKSGTSASLAISGLRSEDEADYYCSSYLQQHSLFGGGTKLTVL
B6: CL9 (antibody, V domains shown)
VH: B5 VH with G31S, A33Y, M34W, S99I, P100D, S101V, G102Y, L103G, Y106I
VL: QSVLTQPPSASGTPGQRVTISCSGSTSNIGTNYVYWYQQLPGTAPKLLIYDNNNRPSGVPDRFSGSKSGTSASLAISGLRSEDEADYYCQTWDSSTDVVFGGGTKLTVL
notes: also called anti-CD300c monoclonal antibody CL9; CB301 antibody CL9
B7: SK12 (antibody, V domains shown)
VH: B2 VH with S35H, N52S, S57D, L59Y, Y60H, A97T, V100L, S105Y
VL: EIVLTQSPGTLSLSPGERATLSCRASQSISSYLNWYQQKPGQAPRLLIYDASNRAPGIPDRFSGSGSGTDFTLTISRLEPEDFAVYYCQQSYSIPITFGQGTKVEIKF
notes: also called anti-CD300c monoclonal antibody SK12; CB301 antibody SK12
B8: SK13 (antibody, V domains shown)
VH: RVQLLESGGGLVQPGGSLRLSCAASGFTFSDYAMSWVRQAPGKGLEWVSSISSSSSYIYYTDSVKGRFTISRDNSKNTLYLQMNSLRAEDTAVYYCARGGYGFDYWGQGTLVTVSS
VL: EIVLTQSPGTLSLSPGERATLSCRASQSISSYLNWYQQKPGQAPRLLIYSASSRPQGIPDRFSGSGSGTDFTLTISRLEPEDFAVYYCQQYDDLPFTFGQGTKVEIK
notes: also called anti-CD300c monoclonal antibody SK13; CB301 antibody SK13
B9: CK3 (antibody, V domains shown)
VH: RVQLLESGGGLVQPGGSLRLSCAASGFTFSSYAISWVRQAPGKGLEWVSATSGSGRATYYADSVKGRFTISRDNSKNTLYLQMNSLRAEDTAVYYCARDTWWEGYFDLWGQGTLVTVSS
VL: EIVLTQSPGTLSLSPGERATLSCQASHISTHLNWYQQKPGQAPRLLIYGASSRATGIPDRFSGSGSGTDFTLTISRLEPEDFAVYYCQQYNTYPPTFGQGTKVEIK
notes: also called anti-CD300c monoclonal antibody CK3; CB301 antibody CK3
B10: SK17 (antibody, V domains shown)
VH: EVQLLESGGGLVQPGGSLRLSCAASGFTFSSYYWSWVRQAPGKGLEWVSTITGSGGSTDYANSVKGRFTISRDNSKNTLYLQMNSLRAEDTAVYYCATGGGIFDYWGQGTLVTVSS
VL: EIVLTQSPGTLSLSPGERATLSCQASQTISNYLNWYQQKPGQAPRLLIYDASNRATGIPDRFSGSGSGTDFTLTISRLEPEDFAVYYCQQYNSYPPSFGQGTKVEIK
notes: also called anti-CD300c monoclonal antibody SK17; CB301 antibody SK17
B11: CL4 (antibody, V domains shown)
VH: RVQLLESGGGLVQPGGSLRLSCAASGFTFGSNYMSWVRQAPGKGLEWVSTISGSGTSTYYADSLKGRFTISRDNSKNTLYLQMNSLRAEDTAVYYCARGMWGMDVWGQGTLVTVSS
VL: QSVLTQPPSASGTPGQRVTISCTGKHRHTVNWYQLLPGTAPKLLIYLDSERPSGVPDRFSGSKSGTSASLAISGLRSEDEADYYCQSYDSSSVVFGGGTKLTVL
notes: also called anti-CD300c monoclonal antibody CL4; CB301 antibody CL4
B12: SK14 (antibody, V domains shown)
VH: B2 VH with R1E, S31N, Y32F, M34I, S35A, N52S, S54R, G56T, L59Y
VL: EIVLTQSPGTLSLSPGERATLSCRASQSISSHLAWYQQKPGQAPRLLIYDTSNRATGIPDRFSGSGSGTDFTLTISRLEPEDFAVYYCQQSYSTPFTFGQGTKVEIK
notes: also called anti-CD300c monoclonal antibody SK14; CB301 antibody SK14
B13: CB301_H3L1_E6 (antibody, V domains shown)
VH: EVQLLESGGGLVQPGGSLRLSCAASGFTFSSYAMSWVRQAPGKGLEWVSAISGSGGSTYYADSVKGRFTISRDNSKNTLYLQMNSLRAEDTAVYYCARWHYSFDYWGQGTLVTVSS
VL: QSVLTQPPSASGTPGQRVTISCRGNNIGSKRVHWYQQLPGTAPKLLIYSYNHRPSGVPDRFSGSKSGTSASLAITGLRSEDEADYYCNTWDDSLEGPVFGGGTKLTVL
B14: CL6 (antibody, V domains shown)
VH: EVQLLESGGGLVQPGGSLRLSCAASGFTFSSYGMHWVRQAPGKGLEWVSAISGSGGSTYYADSVKGRFTISRDNSKNTLYLQMNSLRAEDTAVYYCAVSGAGRGFFDYWGQGTLVTVSS
VL: QSVLTQPPSASGTPGQRVTISCSGSSSNIGSNYVYWYQQLPGTAPKLLIYEDNKRPSGVPDRFSGSKSGTSASLAISGLRSEDEADYYCSSYTSSSTVIFGGGTKLTVL
notes: also called anti-CD300c monoclonal antibody CL6; CB301 antibody CL6
B15: CB301_H3L1_A10 (antibody, V domains shown)
VH: EVQLLESGGGLVQSGGSLRLSCAASGFTFSSYGMHWVRQAPGKGLEWVSAISGSGGSTYYADSVKGRFTISRDNSKNTLYLQMNSLRAEDTAVYYCVRGYGAMDVWGQGTLVTVSS
VL: QSVLTQPPSASGTPGQRVTISCTRSSGSIASNYVQWYQQLPGTAPKLLIYRNNQRPSGVPDRFSGSKSGTSASLAISGLRSEDEADYYCSSYTTSSTLVFGGGTKLTVL
B16: SK11 (antibody, V domains shown)
VH: B2 VH with S31T, A33G, S35H, N52S, L59Y, V100L, F103L, S105Y
VL: B12 VL with A25S, S28G, S30T, S31N, H32Y, T51A, F96L
notes: also called anti-CD300c monoclonal antibody SK11; CB301 antibody SK11
B17: CB301_H3L1_A12 (antibody, V domains shown)
VH: B15 VH with S14P, G33A, E89K, V97A, R98S, A102L
VL: QSVLTQPPSASGTPGQRVTISCTGTSSDVGNYNLVSWYQQLPGTAPKLLIYSNNQRPSGVPDRFSGSKSGTSASLAISGLRSEDEADYYCSSYTGSNALLFGGGTKLTVL
B18: CK2 (antibody, V domains shown)
VH: B15 VH with S14P, G56T, T58I, V97A, Y100G, G101T, M103F, V105Y
VL: B12 VL with S28R, I29S, S30D, S31N, H32Y, T51A, I106T
notes: also called anti-CD300c monoclonal antibody CK2; CB301 antibody CK2

Legend:
[1] = molecular target: T1, CD300c antigen (11832-H08H, Sino Biological) (human, UniProt Q08708 21-183); experiment: binding ELISA, plate coated with CD300c antigen (8 µg/mL), HRP anti-Fc IgG detection
T1 construct: Bought antigen; also called CD300c protein; CD300 antigen-like family member C
T1 sequence (looked up): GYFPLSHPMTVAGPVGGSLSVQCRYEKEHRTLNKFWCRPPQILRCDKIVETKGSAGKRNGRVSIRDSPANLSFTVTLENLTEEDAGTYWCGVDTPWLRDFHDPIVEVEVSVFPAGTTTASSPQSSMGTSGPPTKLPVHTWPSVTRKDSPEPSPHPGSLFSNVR
Description: In order to identify the antigen-binding ability of the anti-CD300c monoclonal antibodies produced in Example 1, binding ELISA was performed. Specifically, a CD300c antigen (11832-H08H, Sino Biological) or a CD300a antigen (12449-H08H, Sino Biological) in a coating buffer (0.1 M sodium carbonate, pH 9.0) was dispensed into an ELISA plate at a concentration of 8 μg/mL per well, followed by incubation at room temperature for 3 hours to allow the antigen to be bound to the plate. The unbound antigens were removed by washing three times using phosphate buffered saline-Tween 20 (PBST), and then 300 μL of PBST supplemented with 5% bovine serum albumin (BSA) was added to each well, followed by incubation at room temperature for 1 hour and then washing using PBST. Then, an anti-CD300c monoclonal antibody was diluted in quadruplicate and added thereto, followed by incubation for 1 hour at room temperature for antigen binding. After 1 hour, washing was performed three times using PBST to remove unbound anti-CD300c monoclonal antibody, and then 4 μg/mL of an antibody for detection (HRP conjugated anti-Fc IgG) was added, followed by incubation again at room temperature for 1 hour. Subsequently, the unbound antibody for detection was removed using PBST, and then TMB solution was added, followed by incubation for 10 minutes for development. Then, 2 N sulfuric acid solution was added to terminate the development reaction, and the absorbance was measured at 450 nm to identify the antibodies specifically binding to the CD300c antigen.

[2] = molecular target: T1, CD300c antigen (11832-H08H, Sino …); experiment: selection ELISA of Example 1.2, scFv periplasmic extract on coated CD300c antigen
Description: In order to select anti-CD300c monoclonal antibodies specifically binding, with high binding affinity, to a CD300c antigen, ELISA was performed using the library pool obtained by the same method as in Example 1.1. More specifically, each of a CD300c antigen and a CD300a antigen in a coating buffer (0.1 M sodium carbonate, pH 9.0) was dispensed into an ELISA plate at a concentration of 5 μg/mL per well, followed by incubation at room temperature for 3 hours, to allow the antigen to bind to the plate. The unbound antigens were removed by washing three times using phosphate buffered saline-Tween 20 (PBST), and then 350 μL of PBST supplemented with 2% bovine serum albumin (BSA) was added to each well, followed by incubation at room temperature for 1 hour and then washing again using PBST. Then, 25 μg of a periplasmic extract containing scFv obtained by the same method as in Example 1.1 was added thereto, followed by incubation for 1 hour at room temperature for antigen binding. After 1 hour, the unbound scFv was removed by washing three times using PBST, and then 4 μg/mL of an antibody for detection was added, followed by incubation again at room temperature for 1 hour. Subsequently, the unbound antibodies for detection were removed using PBST, and then HRP-conjugated anti-rabbit IgG was added, followed by incubation at room temperature for 1 hour. The unbound antibodies were removed again using PBST. Subsequently, 3,3′,5,5′-tetramethylbenzidine (TMB) solution was added, followed by incubation for 10 minutes for development. Then, 2 N sulfuric acid solution was added to terminate the development reaction, and the absorbance was measured at 450 nm to identify the antibodies specifically binding to the CD300c antigen.

Binder | EC50 [1] [µg/mL] | binding result [2]
B1 | 0.056 | 
B2 | 2.42 | 
B3 | 14.7 | 
B4 | 0.032 | 
B5 |  | binds
B6 | 0.094 | 
B7 | 0.067 | 
B8 | 0.044 | 
B9 | 0.793 | 
B10 | 0.054 | 
B11 | 0.031 | 
B12 | 0.065 | 
B13 |  | binds
B14 | 0.148 | 
B15 |  | binds
B16 | 0.052 | 
B17 |  | binds
B18 | 0.033 | 
